Earlier results as cited in article PMC2744096.

Target: MLL (Homo sapiens) (UniProt Q03164)

- Kd: 3000 nM
Substance: CBP KIX (from UniProt Q92793)
